Experimental data taken from publication PMC8560813.

Key:
[1] = biological target: heme (acquired from hemoglobin resin); experiment: visible spectroscopy after incubation with hemoglobin resin; details: mean difference before and after incubation with beads, three independent experiments; parent: est. 0.40; read off a plot
[2] = biological target: bovine holo hemoglobin, P01966;P02070; experiment: pull-down (hemoglobin resin, anti-His Western, band intensity quantified); details: three independent pull-down experiments; parent: est. 7.5; read off a plot

apo HphA (hemophilin), N-terminal 6X His tagged, heme stripped by acid-acetone extraction (from UniProt A0A059ZRB8) H43A; H106A
response [1]: 0.03 ΔAbsorbance | response [2]: 1.5 % of Input
